We go through six proteins from paper PMC11234212.

A short description of data set [1]: RALY ubiquitination western blot. A general note: In western blotting, separated proteins are transferred to a membrane and probed.
Data set [2] in a line: western blot of RALY protein.
Data set [3] in a line: half-life analysis, western blot, Hep3B and Huh7. The conditions noted are these: glycan gained; control: DMSO.
Where [4] appears, read: glycan lost, control: RALYKO-WT.
[5] abbreviates: glycan gained, control: untreated / control-transfected cells.

B1: RALY: S176A (protein)
parent chain: MSLKLQASNVTNKNDPKSINSRVFIGNLNTALVKKSDVETIFSKYGRVAGCSVHKGYAFVQYSNERHARAAVLGENGRVLAGQTLDINMAGEPKPDRPKGLKRAASAIYSGYIFDYDYYRDDFYDRLFDYRGRLSPVPVPRAVPVKRPRVTVPLVRRVKTNVPVKLFARSTAVTTSSAKIKLKSSELQAIKTELTQIKSNIDALLSRLEQIAAEQKANPDGKKKGDGGGAGGGGGGGGSGGGGSGGGGGGGSSRPPAPQENTTSEAGLPQGEARTRDDGDEEGLLTHSEEELEHSQDTDADDGALQ
As for B1, the degradation_or_half_life entry in “CHX chase, western blot” (setting [4]) is recorded as “decreases”. The “other: ubiquitination” value in data set [1] (setting [4]) is on record as “increases”.

B2: RALY: PUG (protein)
parent chain: MSLKLQASNVTNKNDPKSINSRVFIGNLNTALVKKSDVETIFSKYGRVAGCSVHKGYAFVQYSNERHARAAVLGENGRVLAGQTLDINMAGEPKPDRPKGLKRAASAIYSGYIFDYDYYRDDFYDRLFDYRGRLSPVPVPRAVPVKRPRVTVPLVRRVKTNVPVKLFARSTAVTTSSAKIKLKSSELQAIKTELTQIKSNIDALLSRLEQIAAEQKANPDGKKKGDGGGAGGGGGGGGSGGGGSGGGGGGGSSRPPAPQENTTSEAGLPQGEARTRDDGDEEGLLTHSEEELEHSQDTDADDGALQ
For B2, in data set [2] (setting [5]), the expression_or_secretion entry is “increases”. For the same protein, the “degradation_or_half_life, half_life” value in data set [3] is listed as “increases”.

B3: RALY: siOGT (protein)
parent chain: MSLKLQASNVTNKNDPKSINSRVFIGNLNTALVKKSDVETIFSKYGRVAGCSVHKGYAFVQYSNERHARAAVLGENGRVLAGQTLDINMAGEPKPDRPKGLKRAASAIYSGYIFDYDYYRDDFYDRLFDYRGRLSPVPVPRAVPVKRPRVTVPLVRRVKTNVPVKLFARSTAVTTSSAKIKLKSSELQAIKTELTQIKSNIDALLSRLEQIAAEQKANPDGKKKGDGGGAGGGGGGGGSGGGGSGGGGGGGSSRPPAPQENTTSEAGLPQGEARTRDDGDEEGLLTHSEEELEHSQDTDADDGALQ
With B3, in data set [2] (glycan lost, control: untreated / control-transfected cells), the expression_or_secretion entry is on record as “decreases”.

B4: RALY: TMG (protein)
parent chain: MSLKLQASNVTNKNDPKSINSRVFIGNLNTALVKKSDVETIFSKYGRVAGCSVHKGYAFVQYSNERHARAAVLGENGRVLAGQTLDINMAGEPKPDRPKGLKRAASAIYSGYIFDYDYYRDDFYDRLFDYRGRLSPVPVPRAVPVKRPRVTVPLVRRVKTNVPVKLFARSTAVTTSSAKIKLKSSELQAIKTELTQIKSNIDALLSRLEQIAAEQKANPDGKKKGDGGGAGGGGGGGGSGGGGSGGGGGGGSSRPPAPQENTTSEAGLPQGEARTRDDGDEEGLLTHSEEELEHSQDTDADDGALQ
Regarding B4, the expression_or_secretion result in data set [2] (glycan gained, control: TRIM27-overexpressing cells without TMG) is “increases”; in data set [2] (setting [5]), “increases”. The “degradation_or_half_life, half_life” value in data set [3] was “increases, approximately 40 (Hep3B), 32 (Huh7) vs approximately 16 (Hep3B), 15 (Huh7)”. For the same protein, the “other: ubiquitination” value in data set [1] (glycan gained, control: untreated) is reported as “decreases”.

B5: RALY: TMG or PUG (protein)
parent chain: MSLKLQASNVTNKNDPKSINSRVFIGNLNTALVKKSDVETIFSKYGRVAGCSVHKGYAFVQYSNERHARAAVLGENGRVLAGQTLDINMAGEPKPDRPKGLKRAASAIYSGYIFDYDYYRDDFYDRLFDYRGRLSPVPVPRAVPVKRPRVTVPLVRRVKTNVPVKLFARSTAVTTSSAKIKLKSSELQAIKTELTQIKSNIDALLSRLEQIAAEQKANPDGKKKGDGGGAGGGGGGGGSGGGGSGGGGGGGSSRPPAPQENTTSEAGLPQGEARTRDDGDEEGLLTHSEEELEHSQDTDADDGALQ
In the case of B5, the degradation_or_half_life result in the data set “CHX chase, western blot” (glycan gained, control: untreated RALYKO-WT) is on record as “increases”.

B6: RALY: OE-OGT (protein)
parent chain: MSLKLQASNVTNKNDPKSINSRVFIGNLNTALVKKSDVETIFSKYGRVAGCSVHKGYAFVQYSNERHARAAVLGENGRVLAGQTLDINMAGEPKPDRPKGLKRAASAIYSGYIFDYDYYRDDFYDRLFDYRGRLSPVPVPRAVPVKRPRVTVPLVRRVKTNVPVKLFARSTAVTTSSAKIKLKSSELQAIKTELTQIKSNIDALLSRLEQIAAEQKANPDGKKKGDGGGAGGGGGGGGSGGGGSGGGGGGGSSRPPAPQENTTSEAGLPQGEARTRDDGDEEGLLTHSEEELEHSQDTDADDGALQ
Consider B6, for which, in data set [2] (setting [5]), the expression_or_secretion result is on record as “increases”.
